This passage reports Kd results from paper PMC10786891, “Massively parallel profiling of RNA-targeting CRISPR-Cas13d”.

The chains are these.
T1: EsCas13d, nuclease-dead (Eubacterium siraeum, UniProt B0MS50, R295A;H300A;R849A;H854A)
T1 sequence: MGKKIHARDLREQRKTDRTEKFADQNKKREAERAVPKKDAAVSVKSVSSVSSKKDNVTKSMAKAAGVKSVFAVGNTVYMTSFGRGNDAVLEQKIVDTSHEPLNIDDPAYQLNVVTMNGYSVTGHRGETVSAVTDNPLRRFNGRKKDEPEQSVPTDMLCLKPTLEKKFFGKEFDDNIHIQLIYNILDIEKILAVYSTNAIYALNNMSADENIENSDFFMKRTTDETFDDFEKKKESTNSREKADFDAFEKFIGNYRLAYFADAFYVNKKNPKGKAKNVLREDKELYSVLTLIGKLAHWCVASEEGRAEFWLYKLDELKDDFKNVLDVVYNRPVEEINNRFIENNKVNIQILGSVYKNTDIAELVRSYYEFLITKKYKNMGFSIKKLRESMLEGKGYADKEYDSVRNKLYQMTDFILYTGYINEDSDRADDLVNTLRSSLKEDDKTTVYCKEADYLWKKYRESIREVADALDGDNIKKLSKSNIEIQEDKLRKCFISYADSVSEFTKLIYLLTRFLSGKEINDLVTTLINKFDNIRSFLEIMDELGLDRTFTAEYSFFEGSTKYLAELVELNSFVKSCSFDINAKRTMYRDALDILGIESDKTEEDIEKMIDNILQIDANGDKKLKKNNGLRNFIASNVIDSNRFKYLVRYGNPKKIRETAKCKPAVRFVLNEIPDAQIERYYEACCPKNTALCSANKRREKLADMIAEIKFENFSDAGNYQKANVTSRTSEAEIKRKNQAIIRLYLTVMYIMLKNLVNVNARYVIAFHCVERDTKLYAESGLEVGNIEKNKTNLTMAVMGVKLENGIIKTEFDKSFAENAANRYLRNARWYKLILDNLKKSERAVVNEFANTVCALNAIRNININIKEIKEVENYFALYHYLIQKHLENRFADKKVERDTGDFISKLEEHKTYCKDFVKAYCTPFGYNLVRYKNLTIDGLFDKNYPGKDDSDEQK

B1: target 2 MT 5'PFS GCC 3'PFS UGC (mixed)
RNA 1: CACCCGUGCAAAAUUGCAGGGGUCUAAAACCUUCUCCAAAUUGUUUCAUCCU
RNA 2: GGGAAUGGAUCCACAUCUACGAAUUCGCCAGGAUGAAACAAUUUGGAGAAGUGCAGAUCGGAAGAGCACACGU
B2: target 2 MT 5'PFS GUG 3'PFS CUU (mixed)
RNA 1: B1 RNA 1
RNA 2: B1 RNA 2 with C28U, C29G, U52C, G53U, C54U
B3: target 2 MT 5'PFS UCA 3'PFS AAA (mixed)
RNA 1: B1 RNA 1
RNA 2: B1 RNA 2 with G27U, C29A, U52A, G53A, C54A
B4: target 2 MT 5'PFS UGG 3'PFS CCG (mixed)
RNA 1: B1 RNA 1
RNA 2: B1 RNA 2 with G27U, C28G, C29G, U52C, G53C, C54G
B5: target 2 MT 5'PFS GAC 3'PFS AGA (mixed)
RNA 1: B1 RNA 1
RNA 2: B1 RNA 2 with C28A, U52A, C54A
B6: target 2 MT 5'PFS CAC 3'PFS AUG (mixed)
RNA 1: B1 RNA 1
RNA 2: B1 RNA 2 with G27C, C28A, U52A, G53U, C54G
B7: target 2 MT 5'PFS UAC 3'PFS AUA (mixed)
RNA 1: B1 RNA 1
RNA 2: B1 RNA 2 with G27U, C28A, U52A, G53U, C54A
B8: target 2 MT 5'PFS UCA 3'PFS AAU (mixed)
RNA 1: B1 RNA 1
RNA 2: B1 RNA 2 with G27U, C29A, U52A, G53A, C54U
B9: target 2 MT 5'PFS CAC 3'PFS AUC (mixed)
RNA 1: B1 RNA 1
RNA 2: B1 RNA 2 with G27C, C28A, U52A, G53U
B10: target 2 MT 5'PFS AAG 3'PFS AAU (mixed)
RNA 1: B1 RNA 1
RNA 2: B1 RNA 2 with G27A, C28A, C29G, U52A, G53A, C54U
B11: target 2 MT 5'PFS UAC 3'PFS AUC (mixed)
RNA 1: B1 RNA 1
RNA 2: B1 RNA 2 with G27U, C28A, U52A, G53U
B12: target 2 MT 5'PFS GGU 3'PFS AAG (mixed)
RNA 1: B1 RNA 1
RNA 2: B1 RNA 2 with C28G, C29U, U52A, G53A, C54G
B13: target 2 MT 5'PFS AAA 3'PFS CCA (mixed)
RNA 1: B1 RNA 1
RNA 2: B1 RNA 2 with G27A, C28A, C29A, U52C, G53C, C54A
B14: target 2 MT 5'PFS GAC 3'PFS AGG (mixed)
RNA 1: B1 RNA 1
RNA 2: B1 RNA 2 with C28A, U52A, C54G
B15: target 2 MT 5'PFS GUG 3'PFS CUG (mixed)
RNA 1: B1 RNA 1
RNA 2: B1 RNA 2 with C28U, C29G, U52C, G53U, C54G
B16: target 2 MT 5'PFS GGU 3'PFS AAU (mixed)
RNA 1: B1 RNA 1
RNA 2: B1 RNA 2 with C28G, C29U, U52A, G53A, C54U
B17: target 2 MT 5'PFS AAA 3'PFS CCG (mixed)
RNA 1: B1 RNA 1
RNA 2: B1 RNA 2 with G27A, C28A, C29A, U52C, G53C, C54G
B18: target 2 MT 5'PFS UCA 3'PFS AAG (mixed)
RNA 1: B1 RNA 1
RNA 2: B1 RNA 2 with G27U, C29A, U52A, G53A, C54G
B19: target 2 MT 5'PFS GAC 3'PFS AGC (mixed)
RNA 1: B1 RNA 1
RNA 2: B1 RNA 2 with C28A, U52A
B20: target 2 MT 5'PFS GGU 3'PFS AAA (mixed)
RNA 1: B1 RNA 1
RNA 2: B1 RNA 2 with C28G, C29U, U52A, G53A, C54A
B21: target 2 MT 5'PFS AAU 3'PFS UCU (mixed)
RNA 1: B1 RNA 1
RNA 2: B1 RNA 2 with G27A, C28A, C29U, G53C, C54U
B22: target 2 MT 5'PFS GCC 3'PFS UGA (mixed)
RNA 1: B1 RNA 1
RNA 2: B1 RNA 2 with C54A
B23: target 2 MT 5'PFS UCA 3'PFS AAC (mixed)
RNA 1: B1 RNA 1
RNA 2: B1 RNA 2 with G27U, C29A, U52A, G53A
B24: target 2 MT 5'PFS GAC 3'PFS AGU (mixed)
RNA 1: B1 RNA 1
RNA 2: B1 RNA 2 with C28A, U52A, C54U
B25: target 2 MT 5'PFS UAC 3'PFS AUG (mixed)
RNA 1: B1 RNA 1
RNA 2: B1 RNA 2 with G27U, C28A, U52A, G53U, C54G
B26: target 2 MT 5'PFS AAU 3'PFS UCC (mixed)
RNA 1: B1 RNA 1
RNA 2: B1 RNA 2 with G27A, C28A, C29U, G53C
B27: target 2 MT 5'PFS UAC 3'PFS AUU (mixed)
RNA 1: B1 RNA 1
RNA 2: B1 RNA 2 with G27U, C28A, U52A, G53U, C54U
B28: target 2 MT 5'PFS GUG 3'PFS CUC (mixed)
RNA 1: B1 RNA 1
RNA 2: B1 RNA 2 with C28U, C29G, U52C, G53U
B29: target 2 MT 5'PFS AAA 3'PFS CCU (mixed)
RNA 1: B1 RNA 1
RNA 2: B1 RNA 2 with G27A, C28A, C29A, U52C, G53C, C54U
B30: target 2 MT 5'PFS GUG 3'PFS CUA (mixed)
RNA 1: B1 RNA 1
RNA 2: B1 RNA 2 with C28U, C29G, U52C, G53U, C54A
B31: target 2 MT 5'PFS CCU 3'PFS CCA (mixed)
RNA 1: B1 RNA 1
RNA 2: B1 RNA 2 with G27C, C29U, U52C, G53C, C54A
B32: target 1 insA 3' of 19,insC 3' of 10 (mixed)
RNA 1: CACCCGUGCAAAAAUGCAGGGGUCUAAAACUGAGCGGAUAACCUCUCUAUGG
RNA 2: GGGAAUGGAUCCACAUCUACGAAUUCGUACCAUAAGAGAGGUUCAUCCGCUCACCGAGAUCGGAAGAGCACACGU
B33: target 1 U3A,C4A (mixed)
RNA 1: B32 RNA 1
RNA 2: GGGAAUGGAUCCACAUCUACGAAUUCGUACCAUAGAGAGGUUAUCCGAACACCGAGAUCGGAAGAGCACACGU
B34: target 1 C7A,A16G (mixed)
RNA 1: B32 RNA 1
RNA 2: B33 RNA 2 with A36G, C45A, A48C, A49U
B35: target 1 insU 3' of 15,insG 3' of 10 (mixed)
RNA 1: B32 RNA 1
RNA 2: B32 RNA 2 with A35G, G36A, A37G, G38U, C44G

Numbering of substitutions follows the chain as printed. Names and notes keep the numbering of the source.

In this data set the target is T1, EsCas13d, nuclease-dead. The data set can be described thus: crRNA (strand 1, pre-loaded); Mg2+; 40 mM Tris-HCl pH 7.5, 150 mM NaCl, 6 mM MgCl2, 1 mM DTT, 0.1% Tween-20, 0.2 mg/ml BSA; 25 C; 10 min per concentration, then washed. Conditions: tags: His6-TwinStrep-SUMO cleaved; N-terminal SNAP kept (SNAP-Surface 488); label: 3' end held by stalled T7 RNA polymerase.
For the molecule B1, the Kd (in general, the constant that tells how readily two partners part at equilibrium) was 10.9 ± 1.7 nM.
The same measure for B2: 12.8 ± 1 nM.
The same measure for B3: 4.2 ± 0.9 nM; for B4: 8.6 ± 0.8 nM.
The figure for B5 is 16 ± 6 nM; for B6 it is 1.4 ± 0.21 nM.
Turning to B7, binding was put at a Kd of 4.9 ± 0.7 nM.
B8 came in with a Kd of 5.2 ± 0.7 nM.
With B9, the Kd is 2 ± 0.4 nM.
The figure for B10 is 3.1 ± 0.5 nM; for B11 it is 7 ± 1.7 nM.
B12 displayed a Kd of 12.7 ± 1.2 nM.
The figure for B13 is 10 ± 2.5 nM; for B14 it is 9.5 ± 0.8 nM; for B15 it is 10.1 ± 0.7 nM.
Consider B16, for which binding was characterised by a dissociation constant (Kd) of 12.4 ± 2.2 nM.
The figure for B17 is 5.7 ± 0.9 nM; for B18 it is 6.7 ± 1 nM.
The same measure for B19: 9.3 ± 1.3 nM; for B20: 7.1 ± 1 nM; for B21: 10.7 ± 2 nM.
B22 came in with a dissociation constant Kd of 17 ± 5 nM.
As for B23, binding was characterised by a dissociation constant (Kd) of 7.5 ± 1.1 nM.
The figure for B24 is roughly 43 nM.
The figure for B25 is 6.8 ± 1.4 nM; for B26 it is 11.8 ± 1.9 nM; for B27 it is 9.3 ± 2.9 nM.
The figure for B28 is 21.4 ± 2 nM; for B29 it is 34 ± 13 nM; for B30 it is 8.5 ± 0.7 nM.
As for B31, the Kd is 1.72 ± 0.2 nM.
B32 registered a Kd of 40 ± 4 nM.
Regarding B33, the affinity, expressed as Kd, was 8.5 ± 0.9 nM.
With B34, the affinity, expressed as Kd, was 30 ± 1.9 nM.
The figure for B35 is 21.6 ± 2.9 nM.
